Source: patent US20080199851A1

Target: Inactivated influenza H5N1, Ck HK Yu22/02 (Influenza A virus Ck/HK/Yu22/02 (H5N1))
Assay: cell-based or functional assay

B1: 10F7 single chain antibody (scFv)
scFv: QVQLQQPGAELVKPGASVKLSCKASGYTFTSYWMHWVKQRPGQGLEWIGEIDPSDSYTNYNQKFKGKATLTVDKSSSTAYMQLSSLTSEDSAVYYCARGGTGDFHYAMDYWGQGTSVTVSSGGGGSDILMTQSPSSMSVSLGDTVSITCHASQGISSNIGWLQQKPGKSFKGLIYHGTNLEDGVPSRFSGSGSGADYSLTISSLESEDFADYYCVQYVQFPYTFGGGTKLEIKR
  neutralization: dilution of 10F7 scFv (fold dilution): 64
